# Results as given in US20230074436A1 (DENALI THERAPEUTICS, published 2023).
# Changes are numbered by the printed parent chain. Where two headings read alike, the source gives them in different places.
# B1: 16F3 (antibody, IgG2a, V domains shown)
# VH: AVQLVESGGGLVQPKESLKISCAASGFTFSNGAMNWVRQAPGKGLEWVARIRTKPNNYATYYADSVKGRFTISRDDSKSMVYLQMDDLKTEDTAMYYCTADGATPFAYWGQGTLVTVSS
# VL: DVVLTQTPPTLSATIGQSVSISCRSSQSLLHSNGNTYLHWLLQRPGQSPQLLIYLVSRLESGVPNRFSGSGSGTDFTLKISGVEAEDLGVYYCVQGTHAPFTFGSGTKLEIK
# notes: also called clone 16F3
# B2: 18B4 (antibody, IgG2b, V domains shown)
# VH: EVQLVESGGGLVQPGRSLKLSCAASGFTFSSFAMAWVRQAPKKGLEWVATITSGGSKTYYPDSVKGRFTISRDNAKSTLYLQMDSLRSEDTATYYCAKGYFDYWGQGVMVTVSS
# VL: B1 VL with F101L
# notes: also called clone 18B4
# B3: 22E11 (antibody, IgG1, V domains shown)
# VH: AVQLVESGGGLVQPKESLKISCAASGFTFSTAAMYWVRQAPGKGLEWVTRIRTKPNNYATYYADSVKGRFTISRDDSKSMVYLQMDNLKTEDTAMYYCTADYYDGTPFAYWGQGTLVTVSS
# VL: AVVMTQTPVSLSVSLGGQVSISCRSSQSLVHNNGITYLSWYLQKPGQSPQLPIYKVSNRFSGFSDRFSGGGSGTDFTLKISRVEPDDLGLYYCGQGTQYPYTFGAGTKLELK
# notes: also called clone 22E11
# B4: 1H5 (antibody, rat IgG2b, V domains shown)
# VH: AVQLVESGGGLVQPKESLKISCAASGFTFSDAAMYWVRQAPGKGLELVARIRTKPNNYATYYADSVKGRFTISRDDSKSMVYLQMGNLKTEDTAMYYCSADFHYFDYWGQGVMVTVSS
# VL: DIQMTQSPSVLSASVGDRVTLSCKAGQNINKNLDWYQQKLGEAPKLLISFTNNLQTGVPSRFSGSGSGSDYTLTISSLQPEDVATYYCYQYNSGWTFGGGTKLELK
# notes: also called clone 1H5
# Key:
# [1] = target: T1, alpha-synuclein peptide 95-140 (human); assay: peptide ELISA, coated fragment
# T1 construct: synthetic peptide coated on plate
# Description: (§1) 96-well Nunc plates were coated with 1 pg/mL of the indicated synthetic peptide in PBS 50 μL/well overnight. The plates were washed three times with PBST, then blocked with 150 μL of 3% BSA in PBS for 1 hour. Purified antibody was diluted by serial dilution methods, from 10 pg/mL to 0.6 ng/ml, and 50 μL of the antibody solution was added to the peptide-coated wells. The plates were incubated for 1 hour at room temperature, then washed three times with PBST. Secondary detection antibody, goat anti-rat HRP (obtained from Southern Biotech) 1:5,000 diluted in BSA-PBS, was added to a concentration of 50 μL/well. Plates were incubated for one hour and washed three times with PBST. Plates were then developed with 50 μL/well of TMB substrate (obtained from Thermo Fisher) and quenched with 50 μL/well of 1 N sulfuric acid. The signal was quantified on a BioTek® plate reader at A450.
# [2] = target: T2, alpha-synuclein peptide 1-61 (human); assay: peptide ELISA
# T2 construct: synthetic peptide coated on plate
# Description: as §1
# [3] = target: T2, alpha-synuclein peptide 1-61; assay: ELISA, plate coated with the peptide or protein, antibody titrated, anti-rat HRP, A450
# Description: as §1
# [4] = target: T1, alpha-synuclein peptide 95-140; assay: as above
# Description: as §1
# [5] = target: human alpha-synuclein oligomers (human, UniProt P37840 1-140); assay: competition ELISA: oligomers titrated in solution against 0.6 nM antibody, free antibody read on aSyn-coated plate
# Description: To measure the binding affinities of select antibodies toward oligomeric alpha-synuclein protein, purified antibodies were probed with different concentrations of human alpha-synuclein oligomers in solution, and the levels of unbound antibody were measured by ELISA analysis. In this experiment, 0.6 nM (0.1 pg/mL) of purified antibody was dissolved in phosphate-buffered saline (PBS) solution. […] The mixtures were gently shaken at room temperature for 1 hour to reach equilibrium. After that, these samples were transferred to an alpha-synuclein protein-coated ELISA plate, and antibody not bound to antigen in the previous solution was detected by direct ELISA.
# mouse alpha-synuclein [6] = target: T3, mouse alpha-synuclein (mouse, UniProt O55042 1-140); assay: direct ELISA, plate coated with 1 µg/mL recombinant mouse alpha-synuclein, antibody titrated, anti-rat HRP, A450
# Description: (§2) 96-well Nunc plates were coated with 50 μL of recombinant human, mouse, or rat alpha-synuclein at a concentration of 1 μg/mL in PBS at 4° C. overnight. The plates were then washed three times with PBST and blocked with PBS containing 3% BSA at room temperature for 1 hour. Purified antibody was diluted by serial dilution methods, from 10 μg/mL to 0.6 ng/mL, and 50 μL of the antibody solution was added to the alpha-synuclein-coated wells. The plates were incubated for 1 hour at room temperature, then washed three times with PBST. Secondary detection antibody (goat anti-rat HRP (obtained from Southern Biotech)) was added 50 μL/well, 1:5,000 diluted in BSA-PBS solution. Plates were incubated for 1 hour at room temperature, then washed three times with PBST. Plates were subsequently developed with 50 μL/well of TMB substrate (Thermo Fisher) and quenched with 50 μL/well of 1 N sulfuric acid. The signal was quantified on a BioTek® plate reader at A450.
# [7] = target: alpha-synuclein peptide 1-112 (human); assay: peptide ELISA, coated fragment
# Description: as §1
# [8] = target: T4, alpha-synuclein peptide 61-140 (human); assay: peptide ELISA, coated fragment
# T4 construct: synthetic peptide coated on plate
# Description: as §1
# [9] = target: T5, human alpha-synuclein monomer (human, UniProt P37840 1-140); assay: ELISA, coated human alpha-synuclein
# [10] = target: T6, alpha-synuclein peptide 1-95 (human); assay: peptide ELISA
# T6 construct: synthetic peptide coated on plate
# Description: as §1
# [11] = target: T5, human alpha-synuclein monomer; assay: direct ELISA, plate coated with 1 µg/mL recombinant human alpha-synuclein, antibody titrated, anti-rat HRP, A450
# Description: as §2
# rat alpha-synuclein [12] = target: T7, rat alpha-synuclein (rat, UniProt P37377 1-140); assay: direct ELISA, plate coated with 1 µg/mL recombinant rat alpha-synuclein, antibody titrated, anti-rat HRP, A450
# Description: as §2
# mouse alpha-synuclein [13] = target: T3, mouse alpha-synuclein; assay: direct ELISA on coated antigen;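 further: plates coated with recombinant human, mouse or rat alpha-synuclein, purified antibody titrated 10 µg/mL down to 0.6 ng/mL for 1 h, bound antibody detected by anti-rat HRP with TMB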
# Description: as §2
# [14] = target: T5, human alpha-synuclein monomer; assay: direct ELISA on coated antigen;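 further: plates coated with recombinant human, mouse or rat alpha-synuclein, purified antibody titrated 10 µg/mL down to 0.6 ng/mL for 1 h, bound antibody detected by anti-rat HRP with TMB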
# Description: as §2
# rat alpha-synuclein [15] = target: T7, rat alpha-synuclein; assay: direct ELISA on coated antigen;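 further: plates coated with recombinant human, mouse or rat alpha-synuclein, purified antibody titrated 10 µg/mL down to 0.6 ng/mL for 1 h, bound antibody detected by anti-rat HRP with TMB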
# Description: as §2
# mouse alpha-synuclein [16] = target: T3, mouse alpha-synuclein; assay: ELISA, coated mouse alpha-synuclein
# Description: as §2
# [17] = target: T2, alpha-synuclein peptide 1-61; assay: ELISA, plate coated with the peptide or protein, antibody titrated, anti-rat HRP, A450; remark: listed apart in the source
# Description: as §1
# mouse alpha-synuclein [18] = target: T3, mouse alpha-synuclein; assay: as above
# Description: as §1
# [19] = target: T6, alpha-synuclein peptide 1-95; assay: as above
# Description: as §1
# [20] = target: T5, human alpha-synuclein monomer; assay: as above
# Description: as §1
# [21] = target: T1, alpha-synuclein peptide 95-140; assay: as above; remark: listed apart in the source
# Description: as §1
# [22] = target: T4, alpha-synuclein peptide 61-140; assay: as above
# Description: as §1
# [23] = target: human alpha-synuclein pre-formed fibrils (human, UniProt P37840 1-140); assay: competition ELISA: fibrils titrated in solution against 0.6 nM antibody, free antibody read on aSyn-coated plate
# Description: Purified antibody was probed with different concentrations of alpha-synuclein fibrils in solution, and the levels of unbound antibody were measured by ELISA analysis. In this experiment, 0.6 nM (0.1 μg/mL) of purified antibody was dissolved in phosphate-buffered saline (PBS) solution. […] The mixtures were gently shaken at room temperature for 1 hour to reach equilibrium. After that, these samples were transferred to an alpha-synuclein protein-coated ELISA plate and incubated for 5 minutes. During this short incubation, antibody that was not associated to antigen in the previous solution could instead bind onto the plate, and thus be quantified using a standard ELISA technique. By this means, it was possible to determine the amount of free antibody in the initial mixture with alpha-synuclein fibrils at indicated concentrations.
# [24] = target: T2, alpha-synuclein peptide 1-61; assay: ELISA, plate coated with the peptide or protein, antibody titrated, anti-rat HRP, A450; remark: listed apart in the source
# Description: as §1
# mouse alpha-synuclein [25] = target: T3, mouse alpha-synuclein; assay: as above; remark: listed apart in the source
# Description: as §1
# [26] = target: T6, alpha-synuclein peptide 1-95; assay: as above; remark: listed apart in the source
# Description: as §1
# [27] = target: alpha-synuclein peptide 1-112 (human); assay: as above
# Description: as §1
# [28] = target: alpha-synuclein phosphorylated at serine 129 (human, UniProt P37840 1-140); assay: SPR (Biacore), antibody captured, p129-Syn injected
# Description: (§3) Anti-mouse Fc antibody (obtained from GE Healthcare) was immobilized on the surface of a CM5 chip (obtained from GE Healthcare) through amine-coupling to reach about 6,000 to 8,000 response units (RU). The surface was activated by injection of a mixture of 1-ethyl-3-(3-dimethylaminopropyl)-carbodiimide (EDC) and N-hydroxysuccinimide (NETS), both obtained from GE Healthcare, for 7 minutes at room temperature. […] Both injections were done at room temperature.
# (§4) Purified rat anti alpha-synuclein antibody (10 μg/mL) was injected at room temperature and captured to reach 1,000 to 2,000 RU. […] Sensorgrams were fitted using a 1:1 Langmuir model to estimate kₒₙ and koff.
# gamma-synuclein protein = target: T8, gamma-synuclein protein (human, UniProt O76070 1-127); assay: ELISA on coated synuclein, 1 ug/mL
# T8 construct: species read from 'recombinant human alpha-synuclein protein, beta-synuclein protein, and gamma-synuclein protein'
# Description: (§5) Binding to different synuclein species was tested using a method similar to the ELISA format described above. Briefly, recombinant human alpha-synuclein protein, beta-synuclein protein, and gamma-synuclein protein was coated onto 96-well Nunc plates at 1 μg/mL. The plates were washed with PBST and blocked with 150 μL of 3% BSA in PBS. The serial dilutions of purified antibodies were applied onto the plate, and the associated antibody was detected with goat anti-rat HRP secondary antibody.
# beta-synuclein protein = target: T9, beta-synuclein protein (human, UniProt Q16143 1-134); assay: ELISA on coated synuclein, 1 ug/mL
# T9 construct: species read from 'recombinant human alpha-synuclein protein, beta-synuclein protein, and gamma-synuclein protein'
# Description: as §5
# [29] = target: alpha-synuclein peptide 1-112 (human); assay: peptide ELISA
# Description: as §1
# [30] = target: T2, alpha-synuclein peptide 1-61; assay: ELISA, plate coated with the peptide or protein, antibody titrated, anti-rat HRP, A450; remark: listed apart in the source
# Description: as §1
# [31] = target: T6, alpha-synuclein peptide 1-95; assay: as above; remark: listed apart in the source
# Description: as §1
# [32] = target: alpha-synuclein peptide 1-112 (human); assay: as above; remark: listed apart in the source
# Description: as §1
# [33] = target: T5, human alpha-synuclein monomer; assay: as above; remark: listed apart in the source
# Description: as §1
# [34] = target: T1, alpha-synuclein peptide 95-140; assay: as above; remark: listed apart in the source
# Description: as §1
# [35] = target: T4, alpha-synuclein peptide 61-140; assay: as above; remark: listed apart in the source
# Description: as §1
# [36] = target: T5, human alpha-synuclein monomer; assay: SPR (Biacore), antibody captured, monomer injected, 1:1 fit
# Description: as §3, §4
Binder,antibody concentration at which ELISA is positive [1],antibody concentration at which ELISA is positive [2],IC50 [5],EC50 (read off the curve) (mouse alpha-synuclein [6]),antibody concentration at which ELISA is positive [7],antibody concentration at which ELISA is positive [8],antibody concentration at which ELISA is positive [9],antibody concentration at which ELISA is positive [10],EC50 (read off the curve) [11],EC50 (mouse alpha-synuclein [13]),Bmax (O.D. at 450 nm) [14],EC50 [14],Bmax (O.D. at 450 nm) (rat alpha-synuclein [15]),EC50 (rat alpha-synuclein [15]),antibody concentration at which ELISA is positive (mouse alpha-synuclein [16]),IC50 [23],Bmax (O.D. at 450 nm) (mouse alpha-synuclein [13]),other results
B1,< 40 ng/mL,> 2600 ng/mL,,,,,,,,,,,,,,,,binding result [3]: no binding (tested: 10 µg/ml (1 on the log axis)); EC50 (read off the curve) [4]: ~0.3 µg/mL
B2,< 40 ng/mL,> 2600 ng/mL,37.6 nM,~0.08 µg/mL,160 to 640 ng/mL,< 40 ng/mL,< 40 ng/mL,> 2600 ng/mL,~0.06 µg/mL,0.08 nM,1.36 OD,0.05 nM,1.21 OD,0.3 nM,40 to 160 ng/mL,85.7 nM,,EC50 (read off the curve) (rat alpha-synuclein [12]): ~0.4 µg/mL; binding result [17]: no binding (tested: 10 µg/ml (1 on the log axis)); EC50 (read off the curve) (mouse alpha-synuclein [18]): ~0.08 µg/mL; binding result [19]: no binding (tested: 10 µg/ml (1 on the log axis)); EC50 (read off the curve) [20]: ~0.06 µg/mL; EC50 (read off the curve) [21]: ~0.07 µg/mL; EC50 (read off the curve) [22]: ~0.08 µg/mL
B3,< 40 ng/mL,> 2600 ng/mL,6.96 nM,~0.3 µg/mL,160 to 640 ng/mL,< 40 ng/mL,< 40 ng/mL,> 2600 ng/mL,,0.26 nM,1.05 OD,0.4 nM,0.5 OD,1 nM,40 to 160 ng/mL,28.1 nM,0.58 OD,binding result [24]: no binding (tested: 10 µg/ml (1 on the log axis)); EC50 (read off the curve) (mouse alpha-synuclein [25]): ~0.3 µg/mL; binding result [26]: no binding (tested: 10 µg/ml (1 on the log axis)); EC50 (read off the curve) [27]: ~0.3 µg/mL
B4,< 40 ng/mL,> 2600 ng/mL,30.7 nM,,,< 40 ng/mL,< 40 ng/mL,> 2600 ng/mL,~0.2 µg/mL,5.86 nM,1.14 OD,0.15 nM,0.2 OD,2.97 nM,640 to 2600 ng/mL,5.86 nM,0.16 OD,Kd [28]: 23.7 nM; koff [28]: 0.00113 s⁻¹; kon [28]: 47500 M⁻¹ s⁻¹; binding result (gamma-synuclein protein): no binding; binding result (beta-synuclein protein): no binding; antibody concentration at which ELISA is positive [29]: > 2600 ng/mL; binding result [30]: no binding (tested: 10 µg/ml (1 on the log axis)); binding result [31]: no binding (tested: 10 µg/ml (1 on the log axis)); binding result [32]: no binding (tested: 10 µg/ml (1 on the log axis)); EC50 (read off the curve) [33]: ~0.2 µg/mL; EC50 (read off the curve) [34]: ~0.3 µg/mL; EC50 (read off the curve) [35]: ~0.2 µg/mL; Kd [36]: 16.2 nM; koff [36]: 0.00169 s⁻¹; kon [36]: 104000 M⁻¹ s⁻¹
